Source: patent US20090282582A1, “ENVIRONMENTAL STRESS RESPONSIVE PROMOTER AND METHOD OF TISSUE-SPECIFIC GENE EXPRESSION USING THE SAME” (RIKEN, priority 2006, published 2009)

Experiments:
[1] = system: Arabidopsis thaliana (columbia ecotype) plant body; experiment: full-length cDNA microarray analysis of gene expression levels after environmental stress application; conditions: in vivo
Method: In this example, the gene expression levels at the time of application of various types of environmental stresses were analyzed using microarrays. Specifically, the microarrays described in Seki et al., “Monitoring the expression profiles of 7000 Arabidopsis genes under drought, cold, and high-salinity stresses using a full-length cDNA microarray,” Plant J. 31: 279-292, 2002, were used, and analysis was carried out in accordance with the method similar to the method described therein. Various types of environmental stresses were applied to a plant body under the following conditions. Specifically, low-temperature stress application was carried out by introducing a plate containing a plant body into a low-temperature chamber (4° C.). Dehydration stress application was carried out by capturing the plant body with forceps while refraining from damaging the plant body, roughly removing moisture from the plant body on a Kim Towel, placing the plant body on another plate, placing the plate in a clean bench while leaving the lid open, letting it stand for 2 hours, and then closing the lid. Salt stress application was carried out by dispensing a mixture of MS medium (containing 1% sucrose, 0.1% agar, and 1 mM luciferin) with 250 mM NaCl to the roots of the plant bodies (200 μl per plant body) using a Pipetman. ABA stress application was carried out by dispensing a mixture of MS medium (containing 1% sucrose, 0.1% agar, and 1 mM luciferin) with 100 μM ABA to the roots of the plant bodies (200 μl per plant body) using a Pipetman. As a plant body to which environmental stress is to be applied, Arabidopsis thaliana (columbia ecotype), which had been cultivated on a germination medium containing Murashige and Skoog Salt, 3% sucrose, and […] for 3 weeks, was used. Cultivation conditions were determined so as to maintain the temperature in the chamber at 22° C. with a 16-hour light period and an 8-hour dark period. Total RNA was extracted from plant bodies after environmental stress application or from plant bodies to which no environmental stress had been applied using the TRIZOL Reagent (Life Technologies), and mRNA was extracted using the mRNA isolation kit (Militenyi Biotec Auburn). In accordance with the method described in the above article, mRNA samples were reversely transcribed in the presence of Cy3 dUTP or Cy5 dUTP (Amersham Pharmacia). Microarray analysis was carried out using cDNAs obtained via reverse transcription. Data obtained via microarray analysis were analyzed using the Quantarray Version 2.0 (GSI Lumonics).

[2] = system: transgenic Arabidopsis thaliana plant body (luciferase reporter gene); experiment: luciferase assay of promoter::LUC transgenic plants after environmental stress application; type: in vivo; conditions: for Tissue allowing specific induction: summary over stress types
Method: Specifically, promoter regions were isolated from these genes, transgenic plants in which luciferase reporter genes were to be expressed under the control of such promoters were prepared, and tissue specificity of the promoters was inspected via luciferase assay.
In this example, DNA fragments containing promoter regions of the genes identified in Example 1 were recovered via PCR.
The nucleotide sequences of the amplified DNA fragments were determined in accordance with a conventional technique to confirm that mutagenesis, such as substitution or deletion, was not introduced thereinto. After the absence of mutagenesis was confirmed, the recovered DNA fragments were introduced into the vector for promoter analysis (i.e., a vector prepared by introducing the Gateway recombinant sequence (tradename: Gateway Vector Conversion System, Invitrogen) and the luciferase reporter gene into the pGreen vector (Plant Molecular Biology 42: 819-832, 2000)) using the Gateway recombination system to construct a recombinant vector.
The recombinant vector prepared in (1) above was introduced into a plant via Agrobacterium infection. When a gene is introduced via Agrobacterium infection, a process of infecting a plant with Agrobacterium containing a plasmid comprising the target gene construct is necessary. This process was carried out via vacuum infiltration. Specifically, a plant body of Arabidopsis thaliana that had been grown in soil comprising vermiculite and an equivalent amount of pearlite was soaked in a culture solution of Agrobacterium containing the recombinant vector prepared in (1). The resultant was placed in a desiccator, suctioned with a vacuum pump to 65 to 70 mmHg, and then allowed to stand at room temperature for 5 to 10 minutes. The pot was transferred onto a tray, covered with a wrap, and kept moistened. The wrap was removed on the following day, the plant was allowed to grow in that state, and seeds were then harvested.
Subsequently, seeds were sown on MS agar medium to which antibiotic hygromycin has been added in order to select an individual having the recombinant vector prepared in (1). Arabidopsis thaliana that had been grown in this medium was transferred to a pot and allowed to grow therein. Thus, seeds of transgenic plants to which the recombinant vector prepared in (1) has been introduced were obtained.
The seeds of the transgenic plant lineage prepared in (2) were sowed on MS agar medium. The plant body 10 days after sowing was used for luciferase assay.
At the outset, 1 mM luciferin (containing 0.01% Triton-X) was sprayed over the entire plant body 5 times. After the plant body was allowed to stand in the dark for 5 minutes, luciferase luminescence was assayed using ARGUS (assay after treatment for 0 hours). Subsequently, various types of environmental stresses were applied (see below). Low-temperature stress application was carried out by introducing a plate containing a plant body into a low-temperature chamber (4° C.). Dehydration stress application was carried out by capturing the plant body with forceps while refraining from damaging the plant body, roughly removing moisture from the plant body on a Kim Towel, placing the plant body on another plate, placing the plate in a clean bench while leaving the lid open, letting it stand for 2 hours, and then closing the lid. Salt stress application was carried out by dispensing a mixture of MS medium (containing 1% sucrose, 0.1% agar, and 1 mM luciferin) with 250 mM NaCl to the roots of the plant bodies (200 μl per plant body) using a Pipetman. ABA stress application was carried out by dispensing a mixture of MS medium (containing 1% sucrose, 0.1% agar, and 1 mM luciferin) with 100 μM ABA to the roots of the plant bodies (200 μl per plant body) using a Pipetman.
Luciferase luminescence was assayed 2, 5, and 10 hours after the above various types of environmental stresses had been applied using the ARGUS system (Hamamatsu Photonics). […]

B1: Promoter of RAFL05-18-I12: environmental stress responsive promoter DNA, SEQ ID NO: 2, upstream of At2g47770 (homolog of benzodiazepine receptor) (nucleic acid, listed as Arabidopsis thaliana)
DNA: ACCATGGCACCTGAAATACGTAAGGATACAAGAAGAGATATCATCACTGAATTCACTAAAATCACTCCCATCATAAACAGACAAATCAAAACCAAAATATTGTTCATTAACATCGTAAATGGACAACGCTTGACAACGTCTACAAATACTTGATGAAAAGAGATAAGAAATAAGTCTTCATTTATACCACATCAGTCTTCACGTAGATGATCAAGACGATCCCCAGATTGACAATGTAGAGAACACCAAAAAGAATCTGCAAAATGTAAGAGAGTAGAATTGAGACAAATGAAGCGATGGATGGATCAAATTCCGCAGCTAATCCAAAGATAGGAGATTCAAAGAGAGGGAATTGCAAGCACCTGAGCAGGGTAGACTTCCCCTCCAGTTAAGTTCTGCACTGCAGAGTAAACATAGAGGAAACCTGCTGGATAAACCAATGGCCCTGTATCGCCTTTCAAGTTCCCATAGTCTCTCTCTCCCCCGAGAAACCCACTAACCTGCCCCAATTAGATAAATTTCACTTAAAGACTACTAGTTTACTTTGAAGAAACCACAGTTGACCATTGACACTTACCTGTGACATGTAAGCATCCCAATCGATCTTCGTGTCTGTTAAAGGCAAATGACGAAATTTGGTTTAAAACCTATGCAAATGCACATTTCGAGGGATACGCAAGCAAAAAAAAAAAGGAGGTAAATAGCTCTCACATGGAACATAGGCGATAATAAGTGCGACTAGGATTGCATCAGCAAGAATTAGCGCGAATGCGAATGGAACTGCAGGTTTTTTGAATAGATCGGATCGATTCGTCTCCTTCCCCAGCCGACGGCTACGAGAAGCTCTCAAACTCGCCGGTGATGAGGCGCCCGCCATGAAAACAGAGCAAATCGCATCAGCGTCTAGCCAACGCCGCGTAACAGACAACTACTTCCATATTACTACTCTTCTAATTAGCCCAAATTAAATGAGCCTATTGGGCTTCTTGTCTTAGTCGGTGTAGAGCCCAATTGTTGTTTTATTTTTTAATAATGCAAAAGTATTAAGCGATAAATAAATAAGCATCGCAATCGTCCCAAAACTGTGTGTATGCATCAGACATGAGCATATAGAGTAAGCACGTGTCCACACTTTTTCACAAAGTTATCTAAAAACAAAAAACAATTAATTAGCATTCGACGTGTACATATCACTCGCCACGTGTACAAGAGCCTTGGCCTTTTTGCTTCTTCTTCTTGTCTATTAATATCATCTCCTGATTATACTCTCTTTTGACCAAGCTGCTTCTTCTCCATCTATCCAACATCTCAAATCTCAGTAATCTTGTTCCTTCGATTCTGTTTTGGACGTTTGTA
- Environmental stress type to which the promoter responds [1]: Dehydration and salt
- activity to induce gene expression ([2]; 5 hours after dehydration stress application): strong activity
- Tissue in which specific induction of expression is realized ([2]; Dehydration stress): Stem and leaf tissue and root tissue
- Tissue in which specific induction of expression is realized ([2]; Dehydration stress, listed as promoter of RAFL05-18-I12): stem and leaf tissue and root tissue
- Tissue allowing specific induction [2]: Stem and leaf tissue and root tissue

B2: Promoter of RAFL06-07-B19: environmental stress responsive promoter DNA, SEQ ID NO: 4, upstream of At3g11410 (AHG3 gene) (nucleic acid, listed as Arabidopsis thaliana)
DNA: CCCGAACTTAACCCAAATGCCCACCTTTAATTATTCAAAACCAAAAAAGAAGTGTTTGATGCTGAGGTTTGAACTCATCAGATACACGTAACTATTTTCCAATTTATTTTCGTTTATGTGCATTTCAGAATTTCAAGCATAAATATACTCTTATTGTTTAAACATTTCAAATTGCATGTGTGAAATAATATCAGAGTTAGAATATATGTTAATCTTCTCTTCTCCTAGATTCAGTTAGATACGTTTCTATCTTCTTTTAGGCAACATCTCTTGTACAAATAGTCTCTTTGGCAATTCAATACAATCAACCTTTTACGATATATATATTTGTTATTTCTTGTACAAATAGGATCAAAATTGTTATTTCTGAAGCAAATTTTCTTTAGTTTGGATGTCAATTATATCCTCGATTAATATGTAATCACGGAACGGATTCACGATGCGTTATTTTAGAAGCAAATTTATACTTGATAGTACGTTCAGAGGCATCGCTTTTGTACAAATTGAAGCGGGTTTGTTCAATATTTAAAATAACACAGGAAACATTCAAATGTATTATTGATGTTGCTTAGGTTTGTGAAATGATATGAACCATATCGTATATATTACTAGATTTTTCTTATATGTTTTAAGGGTAGTGGGGCTGACCTATCATTCTGTTTGGCATTACCAATCAGACTATCAGAGTATTCACCATTCAGGATTCCATAACTAGAAAAAGAAGGGGTTTACATTTTCTCATACTGTATAATTTTCTACTATCAGAGATTTTATCGATTACATTAATCTCATAGTGATTATTCTGATTTATAAAAAAGTTGACAAAATAATTAAAACCAGTATTTTATAACAAGATTGTCTCTCTCCCATGGCCATTATTTTGACCTCTGACTTATTTAAATCTTAATTAACAGCATAATACTGTATTAAGCGTATTTAAATGAAACAAAATAAAAGAAAAAAAGAACAAAACGAAAGAGTGGACCACATGCGTGTCAAGAAAGGCCGGTCGTTACCGTTAAGGTGTGTCGAACTGTGATTGGGCCACGTTAACGGCGTATCCAAAAGAAAGAAAGGGCACGTGTATAGATCTAGGAAAAAAGAAAGAATGGACGGTTTAGATTGTATCTAGGTACCAGGAAATGGAACGTCACACCAAACGGTACGTGTCGGATCCTGCCCGTTGATGCTGACGGTCAGCAACTTCCCCTTATTCATGCCCCCCTGCCCGTTAATTACGTGTAACCCTTCCATGCGAAAATCAAACCCTTTTTTTTTTTTGCGTTCTTCTTCAACTTTTCTTTTTAAATCAAACCTTTTCTTTTTAAAATCACATTGCATTTCCTAACGCTCAACAAAATCTCTCTCTACTAATATCTCTCTCTCTCTCTCTCTATTGTTGAAGAAGACTCATAATCGGAGATTGTTTGTTTTTGGTTTGCTCTGTAAATTGGAGAAGTTTTGTTAGAGATCAA
- Environmental stress type to which the promoter responds [1]: Dehydration, salt,
- Tissue in which specific induction of expression is realized ([2]; ABA stress (100 μM ABA)): Root tissue
- Tissue in which specific induction of expression is realized ([2]; ABA stress (100 μM ABA), listed as promoter of RAFL06-07-B19): root tissue
- Tissue in which specific induction of expression is realized ([2]; Dehydration stress): Stem and leaf tissue and root tissue*^1
- Tissue in which specific induction of expression is realized ([2]; Dehydration stress, listed as promoter of RAFL06-07-B19): stem and leaf tissue and root tissue
- tissue in which expression is induced ([2]; dehydration stress applied for 5 hours): stem and leaf tissue and root tissue
- tissue in which expression is induced ([2]; dehydration stress applied for 10 hours): leaf tissue and root tissue
- tissue in which expression is induced ([2]; dehydration stress applied for 10 hours, listed as promoter of RAFL06-07-B19): lowered activity to induce gene expression in stem tissue and root tissue but to induce gene expression in leaf tissue
- Tissue allowing specific induction [2]: Stem and leaf tissue and root tissue
